In patent US20220363770A1 (Amgen, published 2022):
Where a chain is given by its changes, count along the chain named. Values belong to the binder of their own block, whether it stands above or below them.

What was measured:
Assay in all cases: cell-based or functional assay
[1] = target: human CGRP receptor (human CRLR / human RAMP1 heterodimer) (human, UniProt Q16602 23-461; O60894 27-148)
[2] = target: T1, human PAC1 receptor (human, UniProt P41586 24-468)
T1 sequence: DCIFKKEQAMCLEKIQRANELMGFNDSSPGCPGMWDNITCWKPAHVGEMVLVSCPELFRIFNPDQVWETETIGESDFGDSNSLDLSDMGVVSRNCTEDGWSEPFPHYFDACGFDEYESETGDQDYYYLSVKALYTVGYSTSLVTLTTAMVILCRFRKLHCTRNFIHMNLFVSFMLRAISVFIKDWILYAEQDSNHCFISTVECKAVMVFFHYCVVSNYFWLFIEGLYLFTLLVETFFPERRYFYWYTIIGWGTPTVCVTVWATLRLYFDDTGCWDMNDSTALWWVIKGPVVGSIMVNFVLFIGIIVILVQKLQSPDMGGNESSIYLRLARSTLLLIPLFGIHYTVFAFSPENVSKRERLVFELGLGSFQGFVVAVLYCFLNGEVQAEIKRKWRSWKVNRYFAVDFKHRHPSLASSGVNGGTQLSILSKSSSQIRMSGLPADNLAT

[3] = target: human CGRP receptor (human, UniProt Q16602 23-461; O60894 27-148)
Sequence of human CGRP receptor (Q16602 23-461 limits assumed, chain 1 of 2): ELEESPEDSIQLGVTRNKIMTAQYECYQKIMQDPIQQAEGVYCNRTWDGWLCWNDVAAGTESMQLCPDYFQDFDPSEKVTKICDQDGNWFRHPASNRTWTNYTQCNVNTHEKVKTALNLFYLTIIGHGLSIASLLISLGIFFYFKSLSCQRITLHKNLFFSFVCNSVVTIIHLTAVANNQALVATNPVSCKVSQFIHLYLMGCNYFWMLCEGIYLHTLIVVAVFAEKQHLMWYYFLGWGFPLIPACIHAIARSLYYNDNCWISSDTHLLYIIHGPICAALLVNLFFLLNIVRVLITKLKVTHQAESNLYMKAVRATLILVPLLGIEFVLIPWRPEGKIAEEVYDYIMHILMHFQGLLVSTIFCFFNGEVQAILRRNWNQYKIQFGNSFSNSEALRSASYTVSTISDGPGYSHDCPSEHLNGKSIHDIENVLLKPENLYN
Sequence of human CGRP receptor (O60894 27-148 limits assumed, chain 2 of 2): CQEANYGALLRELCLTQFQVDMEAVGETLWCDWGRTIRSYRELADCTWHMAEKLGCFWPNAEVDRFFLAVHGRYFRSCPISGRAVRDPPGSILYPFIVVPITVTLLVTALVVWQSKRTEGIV

Sequence of human CGRP receptor (human CRLR / human RAMP1 heterodimer) (Q16602 23-461 limits assumed, chain 1 of 2): as the sequence (Q16602 23-461 limits assumed, chain 1 of 2) above
Sequence of human CGRP receptor (human CRLR / human RAMP1 heterodimer) (O60894 27-148 limits assumed, chain 2 of 2): as the sequence (O60894 27-148 limits assumed, chain 2 of 2) above

B2: anti-CGRP receptor variant antibody 09, bivalent monoclonal antibody (antibody, human IgG1, lambda, N297G, V domains shown)
VH: QVQLVESGGGVVQPGRSLRLSCAASGFTFSSFGMHWVRQAPGKGLEWVAVISFAGEIDYYVDSVKGRFTISRDNSKNTLFLQMNSLRAEDTAVYYCARDRLNYYESSGYYHYKYYGMAVWGQGTTVTVSS
VL: QSVLTQPPSVSAAPGQKVTISCSGSSSNIGNNYVSWYQQLPGTAPKLLIYDNNKRPSGIPDRFSGSKSGTSATLGITGLQTGDEADYYCGTWDSRLSAVVFGGGTKLTVLG
Average IC50 (nM), cell-based cAMP assay, SK-N-MC cells, 3 nM human α-CGRP [1]: 0.86 nM
Fold-improvement over 4E4 Ab (IC50, cAMP assay) [1]: 0.6 fold
Run 1 IC50 (nM), cell-based cAMP assay, SK-N-MC cells, 3 nM human α-CGRP [1]: 0.73 nM
Run 2 IC50 (nM), cell-based cAMP assay, SK-N-MC cells, 3 nM human α-CGRP [1]: 1 nM

B3: anti-CGRP receptor variant antibody 01, bivalent monoclonal antibody (antibody, human IgG1, lambda, N297G, V domains shown)
VH: B2 VH with A54D, E56S, D58K, Y60S
VL: B2 VL with S26Y, N31R, N32Y, Y33S
Average IC50 (nM), cell-based cAMP assay, SK-N-MC cells, 3 nM human α-CGRP [1]: 0.14 nM
Fold-improvement over 4E4 Ab (IC50, cAMP assay) [1]: 3.9 fold
Run 1 IC50 (nM), cell-based cAMP assay, SK-N-MC cells, 3 nM human α-CGRP [1]: 0.13 nM
Run 2 IC50 (nM), cell-based cAMP assay, SK-N-MC cells, 3 nM human α-CGRP [1]: 0.14 nM

B4: anti-CGRP receptor variant antibody 02, bivalent monoclonal antibody (antibody, human IgG1, lambda, N297G, V domains shown)
VH: B2 VH with A54D, E56S, D58K, Y60S
VL: B2 VL with S26R, N31I, N32K, Y33A
Average IC50 (nM), cell-based cAMP assay, SK-N-MC cells, 3 nM human α-CGRP [1]: 0.12 nM
Fold-improvement over 4E4 Ab (IC50, cAMP assay) [1]: 4.6 fold
Run 1 IC50 (nM), cell-based cAMP assay, SK-N-MC cells, 3 nM human α-CGRP [1]: 0.1 nM
Run 2 IC50 (nM), cell-based cAMP assay, SK-N-MC cells, 3 nM human α-CGRP [1]: 0.13 nM

B5: anti-CGRP receptor variant antibody 07, bivalent monoclonal antibody (antibody, human IgG1, lambda, N297G, V domains shown)
VH: B2 VH with T28Y, S30M, S31T, F32Y, A54D, E56S, D58K, Y60S
VL: B2 VL
Average IC50 (nM), cell-based cAMP assay, SK-N-MC cells, 3 nM human α-CGRP [1]: 0.29 nM
Fold-improvement over 4E4 Ab (IC50, cAMP assay) [1]: 1.9 fold
Run 1 IC50 (nM), cell-based cAMP assay, SK-N-MC cells, 3 nM human α-CGRP [1]: 0.18 nM
Run 2 IC50 (nM), cell-based cAMP assay, SK-N-MC cells, 3 nM human α-CGRP [1]: 0.39 nM

B6: anti-CGRP receptor variant antibody 05, bivalent monoclonal antibody (antibody, human IgG1, lambda, N297G, V domains shown)
VH: B2 VH with A54D, E56S, D58K, Y60S
VL: QSVLTQPPSVSAAPGQKVTISCSGSFSNIGRSTVSWYQQLPGTAPKLLIYDNRWRAGGIPDRFSGSKSGTSATLGITGLQTGDEADYYCGTWDYQWKAVVFGGGTKLTVLG
Average IC50 (nM), cell-based cAMP assay, SK-N-MC cells, 3 nM human α-CGRP [1]: 0.2 nM
Fold-improvement over 4E4 Ab (IC50, cAMP assay) [1]: 2.7 fold
Run 1 IC50 (nM), cell-based cAMP assay, SK-N-MC cells, 3 nM human α-CGRP [1]: 0.15 nM
Run 2 IC50 (nM), cell-based cAMP assay, SK-N-MC cells, 3 nM human α-CGRP [1]: 0.25 nM

B7: anti-CGRP receptor variant antibody 06, bivalent monoclonal antibody (antibody, human IgG1, lambda, N297G, V domains shown)
VH: B2 VH with A54D, E56S, D58K, Y60S
VL: B2 VL with S26Y, N31R, N32K, Y33S
Average IC50 (nM), cell-based cAMP assay, SK-N-MC cells, 3 nM human α-CGRP [1]: 0.15 nM
Fold-improvement over 4E4 Ab (IC50, cAMP assay) [1]: 3.7 fold
Run 1 IC50 (nM), cell-based cAMP assay, SK-N-MC cells, 3 nM human α-CGRP [1]: 0.14 nM
Run 2 IC50 (nM), cell-based cAMP assay, SK-N-MC cells, 3 nM human α-CGRP [1]: 0.15 nM

B8: anti-CGRP receptor variant antibody 08, bivalent monoclonal antibody (antibody, human IgG1, lambda, N297G, V domains shown)
VH: B2 VH with A54D, E56S, D58K, Y60S
VL: B2 VL with S26Y, N31W, N32W, Y33P
Average IC50 (nM), cell-based cAMP assay, SK-N-MC cells, 3 nM human α-CGRP [1]: 0.3 nM
Fold-improvement over 4E4 Ab (IC50, cAMP assay) [1]: 1.8 fold
Run 1 IC50 (nM), cell-based cAMP assay, SK-N-MC cells, 3 nM human α-CGRP [1]: 0.28 nM
Run 2 IC50 (nM), cell-based cAMP assay, SK-N-MC cells, 3 nM human α-CGRP [1]: 0.31 nM

B9: anti-CGRP receptor variant antibody 04, bivalent monoclonal antibody (antibody, human IgG1, lambda, N297G, V domains shown)
VH: B2 VH with A54D, E56S, D58K, Y60S, E105R, S107F, H111G, K113H
VL: B2 VL
Average IC50 (nM), cell-based cAMP assay, SK-N-MC cells, 3 nM human α-CGRP [1]: 0.17 nM
Fold-improvement over 4E4 Ab (IC50, cAMP assay) [1]: 3.1 fold
Run 1 IC50 (nM), cell-based cAMP assay, SK-N-MC cells, 3 nM human α-CGRP [1]: 0.14 nM
Run 2 IC50 (nM), cell-based cAMP assay, SK-N-MC cells, 3 nM human α-CGRP [1]: 0.21 nM

B10: 4E4.2 parental antibody, bivalent monoclonal antibody (antibody, human IgG1, lambda, N297G, V domains shown)
VH: B2 VH with A54D, E56S, D58K, Y60S
VL: B2 VL
Average IC50 (nM), cell-based cAMP assay, SK-N-MC cells, 3 nM human α-CGRP [1]: 0.45 nM
Fold-improvement over 4E4 Ab (IC50, cAMP assay) [1]: 1.2 fold
Run 1 IC50 (nM), cell-based cAMP assay, SK-N-MC cells, 3 nM human α-CGRP [1]: 0.34 nM
Run 2 IC50 (nM), cell-based cAMP assay, SK-N-MC cells, 3 nM human α-CGRP [1]: 0.56 nM

Continued, values first:

Average IC50 (nM), cell-based cAMP assay, SK-N-MC cells, 3 nM human α-CGRP [1]: 0.56 nM
Fold-improvement over 4E4 Ab (IC50, cAMP assay) [1]: 1 fold
Run 1 IC50 (nM), cell-based cAMP assay, SK-N-MC cells, 3 nM human α-CGRP [1]: 0.43 nM
Run 2 IC50 (nM), cell-based cAMP assay, SK-N-MC cells, 3 nM human α-CGRP [1]: 0.68 nM
B1: anti-CGRP receptor variant antibody 10, bivalent monoclonal antibody (antibody, human IgG1, lambda, N297G, V domains shown)
VH: B2 VH with T28F, S30G, F32Y, D58E, Y59H
VL: B2 VL

Fold-improvement over 29G4v22 Ab [2]: 3 fold
IC50 [2]: 2.21 nM
Fold-improvement over 4E4 Ab [3]: 0.9 fold
IC50 [3]: 0.55 nM
B11: iPS:454733 (bispecific antibody, human IgG1, kappa, lambda, N297G)
light 1: QSVLTQPPSVSAAPGQKVTISCSGSYSNIGRYSVSWYQQLPGTAPKLLIYDNNKRPSGIPDRFSGSKSGTSATLGITGLQTGDEADYYCGTWDSRLSAVVFGGGTKLTVLGQPKAAPSVTLFPPSSEELQANKATLVCLISDFYPGAVTVAWKADSSPVKAGVETTTPSKQSNNKYAAKSYLSLTPEQWKSHRSYSCQVTHEGSTVEKTVAPTECS
heavy 1: QVQLVESGGGVVQPGRSLRLSCAASGFTFSSFGMHWVRQAPGKGLEWVAVISFDGSIKYSVDSVKGRFTISRDNSKNTLFLQMNSLRAEDTAVYYCARDRLNYYESSGYYHYKYYGMAVWGQGTTVTVSSASTKGPSVFPLAPSSKSTSGGTAALGCLVKDYFPEPVTVSWNSGALTSGVHTFPAVLQSSGLYSLESVVTVPSSSLGTQTYICNVNHKPSNTKVDKKVEPKSCDKTHTCPPCPAPELLGGPSVFLFPPKPKDTLMISRTPEVTCVVVDVSHEDPEVKFNWYVDGVEVHNAKTKPCEEQYGSTYRCVSVLTVLHQDWLNGKEYKCKVSNKALPAPIEKTISKAKGQPREPQVYTLPPSRKKMTKNQVSLTCLVKGFYPSDIAVEWESNGQPENNYKTTPPVLKSDGSFFLYSKLTVDKSRWQQGNVFSCSVMHEALHNHYTQKSLSLSPGK
light 2: EIVLTQSPATLSLSPGERATLSCRASRSVGLALHWYQQKPGQAPRLLIKYASQSLSGIPARFSGSGSGTDFTLTISSLEPEDFAVYYCHQSSFLPFTFGPGTKVDIKRTVAAPSVFIFPPSDEQLKSGTASVVCLLNNFYPREAKVQWKVDNALQSGNSQESVTEQDSKDSTYSLESTLTLSKADYEKHKVYACEVTHQGLSSPVTKSFNRGEC
heavy 2: not shown

Fold-improvement over 29G4v22 Ab [2]: 2.8 fold
IC50 [2]: 2.38 nM
Fold-improvement over 4E4 Ab [3]: 0.9 fold
IC50 [3]: 0.55 nM
B12: iPS:454737 (bispecific antibody, human IgG1, kappa, lambda, N297G)
light 1: B11 light 1
heavy 1: B11 heavy 1
light 2: B11 light 2 with R27K, L31Q, A32S, F93R
heavy 2: not shown

Fold-improvement over 29G4v22 Ab [2]: 3.5 fold
IC50 [2]: 1.92 nM
Fold-improvement over 4E4 Ab [3]: 0.9 fold
IC50 [3]: 0.57 nM
B13: iPS:454739 (bispecific antibody, human IgG1, kappa, lambda, N297G)
light 1: B11 light 1
heavy 1: B11 heavy 1
light 2: B11 light 2 with R27K, L31W, A32S, F93R
heavy 2: not shown

Fold-improvement over 29G4v22 Ab [2]: 3.4 fold
IC50 [2]: 1.95 nM
Fold-improvement over 4E4 Ab [3]: 1 fold
IC50 [3]: 0.52 nM
B14: iPS:454735 (bispecific antibody, human IgG1, kappa, lambda, N297G)
light 1: B11 light 1
heavy 1: B11 heavy 1
light 2: B11 light 2 with R27K, L31Q, A32S, F93R
heavy 2: not shown
